Data as given in US20250011363A1, “OPTIMIZED SHORTENED PEPTIDE THAT BINDS TO ACETYLCHOLINE RECEPTOR, AND USE THEREOF” (SKINMED CO., LTD., priority 2021, published 2025).

Target: acetylcholine receptor
Assay: SPR, receptor immobilized, peptide 10 uM

Binding affinity (RU) | Binder
139 | KRQICR [6mer-1-184]
148 | KRSQYR [6mer-1-179]
144 | RKWQRR [6mer-1-194]
147 | KRGICK [6mer-1-182]
153 | RKLYYR [6mer-1-190]
153 | KRQLRK [6mer-1-185]
148 | KRLFCR [6mer-1-198]
149 | KRVQLK [6mer-1-193]
139 | KKQILK [6mer-1-191]
137 | KKSYSK [6mer-1-189]
154 | KKGVCR [6mer-1-174]
139 | RKLFYK [6mer-1-187]
122 | RKSLQK [6mer-1-188]
142 | RKWRRK [6mer-1-196]
121 | KRGYRR [6mer-1-177]
121 | KKGQTR [6mer-1-183]
146 | RKLVRK [6mer-1-180]
122 | KRGISR [6mer-1-195]
147 | RRRVYK [6mer-1-186]
137 | RRRIQK [6mer-1-175]
121 | KKVYCK [6mer-1-176]
139 | RRSIRR [6mer-1-197]
139 | RKRYQK [6mer-1-178]
127 | KRQYQR [6mer-1-192]
148 | KKGVLR [6mer-1-181]

Further lines, the binder ahead of its results:

Binder | Binding affinity (RU)
RTKKR [5mer-795] | 20
RPTDK [5mer-1096] | 15
RETMK [5mer-798] | 13
RFHGR [5mer-1098] | 31
KKWFTK [6mer-1-165] | 148
RMEKK [5mer-792] | 31
RRVRSR [6mer-1-155] | 127
RKLYQK [6mer-1-141] | 141
RRRYQR [6mer-1-167] | 122
KRWFCK [6mer-1-168] | 131
RRVIQR [6mer-1-160] | 149
KRGVLR [6mer-1-143] | 145
RKVVTR [6mer-1-138] | 124
RRQQSK [6mer-1-169] | 153
KKPHR [5mer-793] | 19
KPDIR [5mer-1097] | 28
KKVYYK [6mer-1-142] | 123
KRVIRR [6mer-1-152] | 154
RRLIYR [6mer-1-158] | 131
RKSFYR [6mer-1-170] | 148
KRGRRR [6mer-1-146] | 139
RKRQCR [6mer-1-150] | 142
KETHK [5mer-797] | 15
RRLFRR [6mer-1-137] | 121
RKLRCR [6mer-1-148] | 146
KNWVR [5mer-796] | 17
KRRYCK [6mer-1-161] | 139

Binder | Binding affinity (RU)
RYSMK [5mer-1094] | 15
KRGQYK [6mer-1-164] | 145
RKVFQR [6mer-1-145] | 141
RRWLYK [6mer-1-136] | 148
KKWQQR [6mer-1-153] | 146
KEAPK [5mer-794] | 20
KRRFLR [6mer-1-139] | 122
KRQVQR [6mer-1-140] | 148
KPMVK [5mer-1092] | 12
RRWVCK [6mer-1-149] | 131
KKQIQR [6mer-1-147] | 125
KKSLSK [6mer-1-162] | 142
KAEKR [5mer-1095] | 27
KRGVRR [6mer-1-151] | 145
REEDK [5mer-1093] | 32
RRSVTK [6mer-1-156] | 154
KTKMR [5mer-791] | 26
RKRYTR [6mer-1-144] | 148
KRLQTK [6mer-1-163] | 147
KTEHR [5mer-1091] | 29
KKLYSR [6mer-1-154] | 153
RRLIRK [6mer-1-172] | 153
RRWYSK [6mer-1-166] | 148
KKSLLR [6mer-1-157] | 123
KRLRRK [6mer-1-159] | 139
RKQFQK [6mer-1-171] | 123
RKQYYR [6mer-1-173] | 123
